PMC3624760

Key:
[1] = biological target: DNA polymerase beta D160N (UniProt P06746 1-335, D160N); assay: active site titration
[2] = biological target: DNA polymerase beta WT (UniProt P06746 1-335); assay: active site titration

B1: 1 bp-gap (dsDNA)
DNA 1: CGCGCCAATCGAGCCATGTCGT
DNA 2: GTCAACGACCCACCATTCAAGA
DNA 3: TCTTGAATGGTGGGTCGTTGACGACGACATGGCTCGATTGGCGCG
[1]
  Kd: 0.021 µM
[2]
  Kd: 0.016 µM
